Results published in the supplement of paper PMC11246515.
± gives the standard deviation of the averaged measurements.

Assay: total protein half-life in vivo (active degradation + dilution); higher = more stable protein
[1] = E. coli NCM3722 delta-clpP delta-lon delta-hslV, growth: N-lim chemostat, doubling time 6 h
[2] = E. coli NCM3722 delta-hslV, growth: N-lim chemostat, doubling time 6 h
[3] = E. coli NCM3722 delta-lon, growth: N-lim chemostat, doubling time 6 h
[4] = E. coli NCM3722 delta-smpB, growth: N-lim chemostat, doubling time 6 h
[5] = wild type E. coli NCM3722, growth: C-lim chemostat, doubling time 6 h
[6] = wild type E. coli NCM3722, growth: N-lim chemostat, doubling time 6 h
[7] = wild type E. coli NCM3722, growth: P-lim chemostat, doubling time 6 h
[8] = wild type E. coli NCM3722, growth: P-lim chemostat, doubling time 12 h
[9] = wild type E. coli NCM3722, growth: C-lim chemostat, doubling time 3 h
[10] = wild type E. coli NCM3722, growth: C-lim chemostat, doubling time 12 h
[11] = E. coli NCM3722 delta-clpP, growth: N-lim chemostat, doubling time 6 h
[12] = wild type E. coli NCM3722, growth: N-lim chemostat, doubling time 12 h

Row | Sequence | total protein half-life in vivo [1] [h] | total protein half-life in vivo [2] [h] | total protein half-life in vivo [3] [h] | total protein half-life in vivo [4] [h] | total protein half-life in vivo [5] [h] | total protein half-life in vivo [6] [h] | total protein half-life in vivo [7] [h] | total protein half-life in vivo [8] [h] | total protein half-life in vivo [9] [h] | total protein half-life in vivo [10] [h] | total protein half-life in vivo [11] [h] | total protein half-life in vivo [12] [h]
1 | MRLRKYNKSLGWLSLFAGTVLLSGCNSALLDPKGQIGLEQRSLILTAFGLMLIVVIPAILMAVGFAWKYRASNKDAKYSPNWSHSNKVEAVVWTVPILIIIFLAVLTWKTTHALEPSKPLAHDEKPITIEVVSMDWKWFFIYPEQGIATVNEIAFPANTPVYFKVTSNSVMNSFFIPRLGSQIYAMAGMQTRLHLIANEPGTYDGISASYSGPGFSGMKFKAIATPDRAAFDQWVAKAKQSPNTMSDMAAFEKLAAPSEYNQVEYFSNVKPDLFADVINKFMAHGKSMDMTQPEGEHSAHEGMEGMDMSHAESAH [P0ABJ1] | 5.81 ± 1.2 | 6.43 ± 0.55 | 6.06 ± 0.16 | 5.63 ± 0.44 | 7.01 ± 0.81 | 6.11 ± 0.29 | 5.85 ± 0.097 | 11.98 ± 0.095 | – | – | – | –
2 | MRLSDYFPESSISVIHSAKDWQEAIDFSMVSLLDKNYISENYIQAIKDSTINNGPYYILAPGVAMPHARPECGALKTGMSLTLLEQGVYFPGNDEPIKLLIGLSAADADSHIGAIQALSELLCEEEILEQLLTASSEKQLADIISRG | – | – | – | – | 4.03 | – | – | – | 3.24 ± 0.38 | 8.65 | – | –
3 | MRLSLPRLKMPRLPGFSILVWISTALKGWVMGSREKDTDSLIMYDRTLLWLTFGLAAIGFIMVTSASMPIGQRLTNDPFFFAKRDGVYLILAFILAIITLRLPMEFWQRYSATMLLGSIILLMIVLVVGSSVKGASRWIDLGLLRIQPAELTKLSLFCYIANYLVRKGDEVRNNLRGFLKPMGVILVLAVLLLAQPDLGTVVVLFVTTLAMLFLAGAKLWQFIAIIGMGISAVVLLILAEPYRIRRVTAFWNPWEDPFGSGYQLTQSLMAFGRGELWGQGLGNSVQKLEYLPEAHTDFIFAIIGEELGYVGVVLALLMVFFVAFRAMSIGRKALEIDHRFSGFLACSIGIWFSFQALVNVGAAAGMLPTKGLTLPLISYGGSSLLIMSTAIMMLLRIDYETRLEKAQAFVRGSR [P0ABG4] | 4.49 | 3.01 | 3.64 | 2.76 ± 0.73 | – | – | 2.93 | 5 | 2.41 ± 0.21 | 3.2 | 2.97 ± 0.5 | –
4 | MRLTAKQVTWLKVCLHLAGLLPFLWLVWAINHGGLGADPVKDIQHFTGRTALKFLLATLLITPLARYAKQPLLIRTRRLLGLWCFAWATLHLTSYALLELGVNNLALLGKELITRPYLTLGIISWVILLALAFTSTQAMQRKLGKHWQQLHNFVYLVAILAPIHYLWSVKIISPQPLIYAGLAVLLLALRYKKLRSLFNRLRKQVHNKLSV | – | – | – | – | – | – | – | – | – | – | – | 8.91
5 | MRLVQLSRHSIAFPSPEGALREPNGLLALGGDLSPARLLMAYQRGIFPWFSPGDPILWWSPDPRAVLWPESLHISRSMKRFHKRSPYRVTMNYAFGQVIEGCASDREEGTWITRGVVEAYHRLHELGHAHSIEVWREDELVGGMYGVAQGTLFCGESMFSRMENASKTALLVFCEEFIGHGGKLIDCQVLNDHTASLGACEIPRRDYLNYLNQMRLGRLPNNFWVPRCLFSPQE [P0A8P1] | – | – | – | – | – | – | – | – | 0.705 ± 0.05 | – | 4.09 ± 0.21 | –
6 | MRMNVFEMEGFLRGKCVPRDLKVNETNAEYLVRKFDALEAKCAALENKIIPVSAELPPANESVLLFDANGEGWLIGWRSLWYTWGQKETGEWQWTFQVGDLENVNITHWAVMPKAPEAGA | – | – | – | 2.28 | – | – | 3.02 ± 0.68 | 5.84 | 2.52 | – | – | –
7 | MRNHQLGIYEKALAKDLSWPERLVLAKSCGFDFVEMSVDETDERLSRLDWSAAQRTSLVAAMIETGVGIPSMCLSAHRRFPFGSRDEAVRERAREIMSKAIRLARDLGIRTIQLAGYDVYYEDHDEGTRQRFAEGLAWAVEQAAASQVMLAVEIMDTAFMNSISKWKKWDEMLASPWFTVYPDVGNLSAWGNDVPAELKLGIDRIAAIHLKDTQPVTGQSPGQFRDVPFGEGCVDFVGIFKTLHKLNYRGSFLIEMWTEKAKEPVLEIIQARRWIEARMQEAGFIC | – | – | – | – | 1.6 ± 0.19 | – | – | – | 1.06 | 2.24 | – | –
8 | MRNKNIIMLLMSSLILSGCGPQPENKESQQQQPSTPTEQQVLAAQQAAIKEAEQSAAAAKALAQQEVQQYSDKQALQGRLQEAPTFARAAKAKATHIANPGTARYQQFDDNPVKQVAQNPLATFSLDVDTGSYANVRRFLNQGLLPPPDAVRVEEIVNYFPSDWDIKDKQSIPASKPIPFAMRYELAPAPWNEQRTLLKVDILAKDRKSEELPASNLVFLIDTSGSMISDERLPLIQSSLKLLVKELREQDNIAIVTYAGDSRIALPSISGSHKAEINAAIDSLDAEGSTNGGAGLELAYQQATKGFIKGGINRILLATDGDFNVGIDDPKSIESMVKKQRESGVTLSTFGVGNSNYNEAMMVRIADVGNGNYSYIDTLSEAQKVLNSEMRQMLITVAKDVKAQIEFNPAWVTEYRQIGYEKRQLRVEHFNNDNVDAGDIGAGKHITLLFELTLNGQKASIDKLRYAPDNKLAKSDKTKELAWLKIRWKYPQGKESQLVEFPLGPTINAPSEDMRFRAAVAAYGQKLRGSEYLNNTSWQQIKQWAQQAKGEDPQGYRAEFIRLIELADGVTDISQ | – | – | – | 2.8393 ± 0.00061 | – | – | – | – | – | – | 4.02 ± 0.33 | –
9 | MRNKPFYLLCAFLWLAVSHALAADSTITIRGYVRDNGCSVAAESTNFTVDLMENAAKQFNNIGATTPVVPFRILLSPCGNAVSAVKVGFTGVADSHNANLLALENTVSAASGLGIQLLNEQQNQIPLNAPSSALSWTTLTPGKPNTLNFYARLMATQVPVTAGHINATATFTLEYQ | – | – | – | 5.58 ± 0.25 | 5.55 | > 8 | 5.52 | 9.2 | 2.61 | 15.7 | – | 13.4
10 | MRNLVKYVGIGLLVMGLAACDDKDTNATAQGSVAESNATGNPVNLLDGKLSFSLPADMTDQSGKLGTQANNMHVWSDATGQKAVIVIMGDDPKEDLAVLAKRLEDQQRSRDPQLQVVTNKAIELKGHKMQQLDSIISAKGQTAYSSVILGNVGNQLLTMQITLPADDQQKAQTTAENIINTLVIQ [P0AEE1] | 6.11 ± 1.1 | 5.42 ± 0.085 | 6.24 ± 0.22 | 6.05 ± 1.3 | – | 5.6 ± 0.16 | 5.55 ± 1.2 | 10.9 ± 0.47 | – | 11.3 ± 1 | 5.96 ± 0.21 | 10.9 ± 0.59
